Reference: PMC8551276

Tests used:
[1] = target: HIV-1 HXB2 Env glycoprotein labelled with super folder GFP (GFPOPT) in the V4 loop of gp120, on pseudovirions (HIV-1 HXB2) (UniProt P04578)
[2] = target: HIV-1 HXB2 Env glycoprotein labelled with super folder GFP (GFPOPT) in the V4 loop of gp120, on pseudovirions (HIV-1 group M subtype B, isolate HXB2) (UniProt P04578)
[3] = target: HIV-1 HXB2 Env glycoprotein labelled with super folder GFP (GFPOPT) in the V4 loop of gp120, on pseudovirions (HIV-1 HXB2) (UniProt P04578); experiment: FRET or BRET
[4] = target: HIV-1 HXB2 Env glycoprotein labelled with super folder GFP (GFPOPT) in the V4 loop of gp120, on pseudovirions (HIV-1 HXB2) (UniProt P04578); experiment: FRET or BRET; single-virus Eapp traces (3 s per frame, 5 min), dwell times as cumulative distribution functions; mature virions in vitro, unliganded; room temperature
[5] = target: HIV-1 HXB2 Env glycoprotein labelled with super folder GFP (GFPOPT) in the V4 loop of gp120, on pseudovirions (HIV-1 HXB2) (UniProt P04578); experiment: FRET or BRET; single-virus Eapp traces, dwell times as CDF; mature virions engaged with living MT-4 T cells; room temperature
[6] = target: HIV-1 HXB2 Env glycoprotein labelled with super folder GFP (GFPOPT) in the V4 loop of gp120, on pseudovirions (HIV-1 HXB2) (UniProt P04578); experiment: FRET or BRET; single-virus Eapp traces, dwell times as CDF; virions on MT-4 T cells with 100 µg/mL PGT145

Human soluble CD4 recombinant protein (sCD4_(D1-D4)) (domain or fragment)
CDF average lifetime of the closed Env conformation (0.12<Eapp<0.23) on mature virions with 10 µg/mL sCD4 (154 s without) [1]: 75 s | CDF average lifetime of the open Env conformation (Eapp<0.12) on mature virions with 10 µg/mL sCD4 (84 s without) [1]: 241 s

anti-HIV-1 gp120 monoclonal, b12 (antibody)
CDF average lifetime of the closed Env conformation, virions on MT-4 T cells with 100 µg/mL b12 (63 s without) [2]: 125 s | CDF average lifetime of the open Env conformation, virions on MT-4 T cells with 100 µg/mL b12 (168 s without) [2]: 61 s

HIV-1 HXB2 Env glycoprotein labelled with super folder GFP (GFPOPT) in the V4 loop of gp120, on pseudovirions (from UniProt P04578) (complex)
CDF average lifetime of the high FRET regime (Env-Env interactions), with sCD4 [3]: 16 s | CDF average lifetime of the high FRET regime (Env-Env interactions) [4]: 68 s | CDF average lifetime of the high FRET regime (Env-Env interactions), virions on MT-4 T cells [5]: 53 s | CDF average lifetime of the high FRET regime (Env-Env interactions), on T cells with PGT145 [6]: 10 s
